Changes are numbered by the printed parent chain.
B1: Cis-mAb HT13 (mouse-human chimera, control) (antibody, V domains shown)
VH: QVQLQQPGAELVKPGASVKMSCKASGYTFTSYWIHWVKQRPGQGLEWIGVIDPSDSYTRYNQKFKGKATLTVDTSSSTAYMQLSSLTSEDSAVYYCTTWEVDYWGQGTTLTVSS
VL: DVVMTQTPLSLPVSLGDQASISCRSSQSLVHSDGNTYLHWYLQKPGQSPKLLIYKVSNRFSGVPDRFSGSGSGTDFTLKISRLEAEDLGVYFCSQSTHVPWTFGGGTKLEIK
B2: Cis-mAb HT3 (humanized) (antibody, V domains shown)
VH: QVQLVQSGAEVKKPGASVKVSCKASGYTFTSYWIHWVRQRPGQGLEWIGVIDPSDSYTRYNQKFKGRVTLTVDTSASTAYMELSSLRSEDTAVYYCTTWEVDYWGQGTLVTVSS
VL: B1 VL with T7S, S14T, D17Q, Q18P, K50Q, L83V, L88V, L109V
B3: Cis-mAb HT1 (humanized) (antibody, V domains shown)
VH: B1 VH with Q5V, P7S, V12K, K67R, S76A, L110V
VL: B1 VL with T7S, S14T, D17Q, Q18P, K50Q, L83V, L88V, L109V
B4: Cis-mAb HT8 (humanized) (antibody, V domains shown)
VH: B2 VH with L70I, V72R
VL: B1 VL with T7S, S14T, D17Q, Q18P, K50Q, F60D, L83V, L88V, L109V
B5: Cis-mAb HT2 (humanized) (antibody, V domains shown)
VH: B2 VH with V20M, R38K, V68A
VL: B1 VL with T7S, S14T, D17Q, Q18P, K50Q, L83V, L88V, L109V
B6: Cis-mAb HT10 (humanized) (antibody, V domains shown)
VH: B2 VH with V20M, R38K, V68A
VL: B1 VL with T7S, S14T, D17Q, Q18P, K50Q, L83V, L88V, F92Y, L109V
B7: Cis-mAb HT18 (humanized) (antibody, V domains shown)
VH: B2 VH with A16S, R40A, I48M, L70I, V72R, A76M, M81T
VL: DIQMTQSPSTLSASVGDRVTITCRSSQSLVHSDGNTYLHWYQQKPGKAPKLLIYKVSNRFSGVPSRFSGSGSGTEFTLTISSLQPDDFATYYCSQSTHVPWTFGQGTKLEIK

What follows are binders tested against cis P-tau in cultured neurons stressed by hypoxia (assay: cell-based or functional assay).

| Cis P-tau elimination | Binder |
| --- | --- |
| 1 relative (HT13 = 1.0) | B1 |
| 1.6 relative (HT13 = 1.0) | B2 |
| 1.7 relative (HT13 = 1.0) | B3 |
| 0.9 relative (HT13 = 1.0) | B4 |
| 1.5 relative (HT13 = 1.0) | B5 |
| 0.9 relative (HT13 = 1.0) | B6 |
| 0.8 relative (HT13 = 1.0) | B7 |
